US20100291075A1 (THERACLONE SCIENCES, published 2010)

Molecular target: recombinant GPI-linked rhesus GM-CSF on the surface of transiently transfected 293 cells (rhesus)

B1: 1783J22 human monoclonal antibody (whole IgG) (antibody, V domains shown)
VH: EVQLLQSGGGLTHPGGSLRLSCAASGFPFHKYTMTWVRQPPGKGLEWVSSVSGVNGKTYYSPSVRGRAIVSRDDSNSMLFLEIKNMTAGDTALYFCAKGPGGHLHYYYGLDVWGHGTSVTVSS
VL: DIQMTQSPSSLSASIGDRVTISCRASQAINNYVAWFQQSAGKAPKSLIYGASNLQPGVPPRFSGSVSGTNFSLTIDGLQSEDFATYFCQNYFGYPLTFGGGTTLEIKR
  EC50 (read off the curve): ~0.05 µg/mL
